# According to FireProtDB (doi:10.1093/protein/gzl019):
# B1: Cold shock protein CspB wild type, P41016 (protein)
# chain: MQRGKVKWFNNEKGYGFIEVEGGSDVFVHFTAIQGEGFKTLEEGQEVSFEIVQGNRGPQAANVVKL
# Settings: Bacillus caldolyticus, pH 7, Thermal, Na cacodylate/HCl 0.1 M, reversible: Yes, whole UniProt chain shown
protein,measurement,setting,value
B1,Tm,CD,76.9 °C
same,unfolding enthalpy (van 't Hoff),CD,245 kJ/mol
same,Tm,DSC,76.9 °C
same,unfolding enthalpy (calorimetric),DSC,257 kJ/mol
